Source: patent US20250154277A1 (CONCEPT TO MEDICINE BIOTECH, published 2025)
Substitutions are numbered along the chain they refer to.

B1: Hu14G12-16 (antibody, V domains shown)
VH: EVQLVQSGAEVKKPGATVKISCKASGYAFSSSWMNWVKQAPGKGLEWIGRIYREDGHTNYNGKFKGRATITADTSTTTAYMELSSLRSEDSAVYFCANGGAMDYWGQGTLVTVSS
VL: DIQMTQSPSSLSASVGDRVTISCRASQDISNYLNWYQQKPGKTVKLLIYYTSRLHSGVPSRFSGSGSGTDYTFTISSLQPEDIATYFCQQDNTLPWTFGGGTKLEIK
notes: humanized
B2: Hu14G12-18 (antibody, V domains shown)
VH: QVQLVQSGAEVKKPGSSVKVSCKASGGTFSSSWMNWVKQAPGQGLEWIGRIYREDGHTNYNGKFKGKATLTADKSTSTAYMELSSLRSEDTAVYFCANGGAMDYWGQGTTVTVSS
VL: B1 VL with S22T, T43V, V44P, F73L, I83V
notes: humanized
B3: 393E9_hVH1_hVL1 (antibody, V domains shown)
VH: EVQLVESGGGLVQPGGSLRLSCAASGFTFTDYYMSWVRQAPGKGLEWVGFIRNKGNGYTTENSASVKGRFTISRDNSKSTLYLQMNSLRAEDTAVYYCARYRGNPHYAMDYWGQGTLVTVSS
VL: DIVLTQSPDSLAVSLGERATINCRASESVEFYGTSFLQWYQQKPGQPPKLLIYGASNVESGVPDRFSGSGSGTDFTLTISSLQAEDIAVYFCQQSRKVPSTFGGGTKVEIK
notes: humanized
B4: 393E9_hVH1_hVL3 (antibody, V domains shown)
VH: B3 VH
VL: DIQLTQSPSSLSASVGDRVTITCRASESVEFYGTSFLQWYQQKPGKAPKLLIYGASNVESGVPSRFSGSGSGTDFTLTISSLQPEDIATYFCQQSRKVPSTFGGGTKVEIK
notes: humanized
B5: 393E9_hVH1_hVL2 (antibody, V domains shown)
VH: B3 VH
VL: EIVLTQSPATLSVSPGERATLSCRASESVEFYGTSFLQWYQQKPGQAPRLLIYGASNVESGIPARFSGSGSGTEFTLTISSLQSEDIAVYFCQQSRKVPSTFGGGTKVEIK
notes: humanized
B6: 393E9_hVH6_hVL4 (antibody, V domains shown)
VH: B3 VH with S77A, T80S
VL: DIVLTQSPLSLPVTPGEPASISCRASESVEFYGTSFLQWYLQKPGQSPQLLIYGASNVESGVPDRFSGSGSGTDFTLKISRVEAEDIGVYFCQQSRKVPSTFGGGTKVEIK
notes: humanized
B7: 393E9_hVH5_hVL1 (antibody, V domains shown)
VH: B3 VH with G16R, A23T, T80I, R89K, A90T
VL: B3 VL
notes: humanized
B8: 393E9_hVH3_hVL2 (antibody, V domains shown)
VH: B3 VH with E1Q, L11V
VL: B5 VL
notes: humanized
B9: 393E9_hVH5_hVL2 (antibody, V domains shown)
VH: B3 VH with G16R, A23T, T80I, R89K, A90T
VL: B5 VL
notes: humanized
B10: 393E9_hVH6_hVL1 (antibody, V domains shown)
VH: B3 VH with S77A, T80S
VL: B3 VL
notes: humanized
B11: 393E9_hVH4_hVL1 (antibody, V domains shown)
VH: B3 VH with T80S, R89K, A90T
VL: B3 VL
notes: humanized
B12: 393E9_hVH4_hVL4 (antibody, V domains shown)
VH: B3 VH with T80S, R89K, A90T
VL: B6 VL
notes: humanized

Molecular target: T1, human 5T4-His protein (human, UniProt Q13641 32-355)
T1 construct: also called recombinant 5T4 protein (human 5T4-his tag); human 5T4 protein; not shown: His tag
T1 sequence (looked up): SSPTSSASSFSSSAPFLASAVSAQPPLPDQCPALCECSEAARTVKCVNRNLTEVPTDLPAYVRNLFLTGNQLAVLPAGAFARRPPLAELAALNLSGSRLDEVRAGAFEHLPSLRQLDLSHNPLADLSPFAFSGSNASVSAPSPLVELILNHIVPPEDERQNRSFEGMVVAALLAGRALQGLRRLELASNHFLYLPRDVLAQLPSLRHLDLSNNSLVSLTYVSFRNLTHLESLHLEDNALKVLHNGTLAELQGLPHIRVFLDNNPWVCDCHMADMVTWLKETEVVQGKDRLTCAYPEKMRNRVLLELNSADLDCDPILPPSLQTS
Assay: SPR Biacore, Protein A capture
Protocol: The binding of the 14G12 humanized antibodies to recombinant 5T4 protein (human 5T4-his tag) was tested with Biacore using a capture method. The mAbs were captured using Protein A chip. Serial dilution of human 5T4-his tag protein was injected over captured antibody for 120 s-180 s at a flow rate of 30 μl/min. The antigen was allowed to dissociate for 360 s-1000 s. All the experiments were carried out on a Biacore T200. Data analysis was carried out using the Biacore T200 evaluation software.

**Q.** With B1 as the binder, how does the Kd read?
**A.** 1.85 nM

**Q.** What about the koff of the same binder?
**A.** 0.000499 s⁻¹

**Q.** What about the kon of the same binder?
**A.** 269000 M⁻¹ s⁻¹

**Q.** What does the source list for B2?
**A.** Kd: 4.55 nM; koff: 0.00178 s⁻¹; kon: 392000 M⁻¹ s⁻¹

Molecular target: T1, human 5T4-His protein
Assay: ELISA, coated 5T4-His
Protocol: To evaluate the binding activity of 393E9 humanized antibodies to human 5T4, the 393E9 chimeric antibody (393E9-C) along with 393E9 humanized mAbs were subjected to ELISA test.
Briefly, microtiter plates were coated with human 5T4-His protein at 1 μg/ml in PBS, 100 μl/well at 4° C. overnight, then blocked with 150 μl/well of 1% BSA. 4-fold dilutions of antibodies starting from 20 nM were added to each well and incubated for 1 hour at 37° C. The plates were washed with PBS/Tween and then incubated with Goat Anti-Human IgG-HRP for 30 mins at 37° C. After washing, the plates were developed with TMB substrate and analyzed by spectrophotometer at OD 450 nm. As shown in FIG. 12 and Table 9, most of the humanized antibodies bound to human 5T4 with high activity.

**Q.** B3 was tested. Which EC50 did it give?
**A.** 0.18 nM

**Q.** How did the EC50 turn out when B4 was run?
**A.** 0.085 nM

**Q.** With B5 as the binder, how does the EC50 read?
**A.** 0.16 nM

**Q.** For B6, which EC50 is on record?
**A.** 0.14 nM

**Q.** How did the EC50 turn out when B7 was run?
**A.** 0.16 nM

**Q.** With B8 as the binder, how does the EC50 read?
**A.** 0.2 nM

**Q.** How did the EC50 turn out when B9 was run?
**A.** 0.27 nM

**Q.** With B10 as the binder, how does the EC50 read?
**A.** 0.11 nM

**Q.** With B11 as the binder, how does the EC50 read?
**A.** 0.13 nM

**Q.** With B12 as the binder, how does the EC50 read?
**A.** 0.16 nM

Molecular target: T1, human 5T4-His protein
Assay: ELISA, coated 5T4-His
Remark: another data set of the same source

**Q.** With B1 as the binder, how does the EC50 read?
**A.** 0.017 µg/mL

**Q.** B2 was tested. Which EC50 did it give?
**A.** 0.31 µg/mL
